Molecular target: recombinant human IGF-1R on I24 cells (human) (UniProt P08069)
Assay: cellular FACS IGF-1R-ANGPT2 bridging assay: I24 cells + hIgG isotype, then 2 µg/mL hANGPT2, <ANGPT2>mIgG1-Biotin and Streptavidin-PE; negative control; untreated I24 cells (panel A): Mean 5.01

Substance: hIgG Isotype (antibody)
- Mean (FL2-H fluorescence): 8.76
